Laboratory results taken from paper PMC5510000, “RPA activates the XPF‐ERCC1 endonuclease to initiate processing of DNA interstrand crosslinks”.

Target: RPA (full-length heterotrimer) (Homo sapiens, UniProt P27694;P15927;P35244 1-616;1-270;1-121)
Assay: fluorescence anisotropy; 1 mM MnCl2; Fluorescence anisotropy: nuclease buffer (composition and pH not in the material) with 1 mM MnCl2, RPA mixed 1:1 with 10 nM fluorescein-labelled DNA, 30 ul, room temperature, 10 min; sigmoidal fit
Settings: protein: recombinant, copies: 1;1;1

Chain of RPA (full-length heterotrimer) (P27694 whole entry, chain 1 of 3): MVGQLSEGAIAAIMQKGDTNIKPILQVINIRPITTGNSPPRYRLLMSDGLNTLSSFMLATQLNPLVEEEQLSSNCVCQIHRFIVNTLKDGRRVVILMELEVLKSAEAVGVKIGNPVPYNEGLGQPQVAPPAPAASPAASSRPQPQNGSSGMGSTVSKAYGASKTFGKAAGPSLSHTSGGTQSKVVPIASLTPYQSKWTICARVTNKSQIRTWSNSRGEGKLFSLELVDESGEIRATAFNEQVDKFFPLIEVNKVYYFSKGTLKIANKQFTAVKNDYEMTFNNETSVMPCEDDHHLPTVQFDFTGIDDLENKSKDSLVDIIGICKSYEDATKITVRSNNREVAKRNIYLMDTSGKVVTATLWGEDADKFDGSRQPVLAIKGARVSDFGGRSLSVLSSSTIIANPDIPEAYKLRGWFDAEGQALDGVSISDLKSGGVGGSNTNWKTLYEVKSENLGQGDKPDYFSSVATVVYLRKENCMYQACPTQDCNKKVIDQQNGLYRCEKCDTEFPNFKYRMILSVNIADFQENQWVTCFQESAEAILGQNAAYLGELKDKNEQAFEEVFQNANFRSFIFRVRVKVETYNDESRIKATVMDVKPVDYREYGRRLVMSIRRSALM
Chain of RPA (full-length heterotrimer) (P15927 whole entry, chain 2 of 3): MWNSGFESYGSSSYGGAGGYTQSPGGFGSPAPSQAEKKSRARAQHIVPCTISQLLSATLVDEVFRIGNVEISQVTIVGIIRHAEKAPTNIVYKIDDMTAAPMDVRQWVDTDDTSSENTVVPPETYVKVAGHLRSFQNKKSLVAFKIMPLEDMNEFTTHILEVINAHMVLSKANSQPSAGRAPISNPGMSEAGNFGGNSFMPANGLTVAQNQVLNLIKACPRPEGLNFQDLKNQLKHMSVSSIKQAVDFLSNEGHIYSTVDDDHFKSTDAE
Chain of RPA (full-length heterotrimer) (P35244 whole entry, chain 3 of 3): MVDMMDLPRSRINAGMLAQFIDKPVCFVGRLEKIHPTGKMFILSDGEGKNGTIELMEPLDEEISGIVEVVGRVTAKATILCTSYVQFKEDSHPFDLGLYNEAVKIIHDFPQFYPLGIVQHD

Row | Binder | Kd (fork: 28 bp duplex, 22 nt 3' arm (strand 1) and 22 nt 5' arm (strand 2)) | Kd (fork 1:2 2:3, 28 bp parental duplex, 22 bp lagging arm, 22 nt 3'-ssDNA arm on strand 1)
1 | simple fork (mixed) DNA 1: ATAAATATTTTTTATTAATAATAGATCACCTTTCTTTCTCTTCTCCCCTT DNA 2: TTCCCCTCCTCTCCTTCCTTCCTGATCTATTATTAATAAAAAATATTTAT | 6.3 nM | 
2 | fork + lagging strand (mixed) DNA 1: ATAAATATTTTTTATTAATAATAGATCACCTTTCTTTCTCTTCTCCCCTT DNA 2: TTCCCCTCCTCTCCTTCCTTCCTGATCTATTATTAATAAAAAATATTTAT ?: GGAAGGAAGGAGAGGAGGGGAA |  | 6.2 nM
